What all share (experiment): SPR
(In general: SPR reads the build-up and loss of mass on a sensor chip optically.)

For test [1], the target named is T1, HCoV-229E S ectodomain (17–1115 aa), 229E S trimer (human coronavirus 229E, UniProt P15423 17-1115).
T1 chain: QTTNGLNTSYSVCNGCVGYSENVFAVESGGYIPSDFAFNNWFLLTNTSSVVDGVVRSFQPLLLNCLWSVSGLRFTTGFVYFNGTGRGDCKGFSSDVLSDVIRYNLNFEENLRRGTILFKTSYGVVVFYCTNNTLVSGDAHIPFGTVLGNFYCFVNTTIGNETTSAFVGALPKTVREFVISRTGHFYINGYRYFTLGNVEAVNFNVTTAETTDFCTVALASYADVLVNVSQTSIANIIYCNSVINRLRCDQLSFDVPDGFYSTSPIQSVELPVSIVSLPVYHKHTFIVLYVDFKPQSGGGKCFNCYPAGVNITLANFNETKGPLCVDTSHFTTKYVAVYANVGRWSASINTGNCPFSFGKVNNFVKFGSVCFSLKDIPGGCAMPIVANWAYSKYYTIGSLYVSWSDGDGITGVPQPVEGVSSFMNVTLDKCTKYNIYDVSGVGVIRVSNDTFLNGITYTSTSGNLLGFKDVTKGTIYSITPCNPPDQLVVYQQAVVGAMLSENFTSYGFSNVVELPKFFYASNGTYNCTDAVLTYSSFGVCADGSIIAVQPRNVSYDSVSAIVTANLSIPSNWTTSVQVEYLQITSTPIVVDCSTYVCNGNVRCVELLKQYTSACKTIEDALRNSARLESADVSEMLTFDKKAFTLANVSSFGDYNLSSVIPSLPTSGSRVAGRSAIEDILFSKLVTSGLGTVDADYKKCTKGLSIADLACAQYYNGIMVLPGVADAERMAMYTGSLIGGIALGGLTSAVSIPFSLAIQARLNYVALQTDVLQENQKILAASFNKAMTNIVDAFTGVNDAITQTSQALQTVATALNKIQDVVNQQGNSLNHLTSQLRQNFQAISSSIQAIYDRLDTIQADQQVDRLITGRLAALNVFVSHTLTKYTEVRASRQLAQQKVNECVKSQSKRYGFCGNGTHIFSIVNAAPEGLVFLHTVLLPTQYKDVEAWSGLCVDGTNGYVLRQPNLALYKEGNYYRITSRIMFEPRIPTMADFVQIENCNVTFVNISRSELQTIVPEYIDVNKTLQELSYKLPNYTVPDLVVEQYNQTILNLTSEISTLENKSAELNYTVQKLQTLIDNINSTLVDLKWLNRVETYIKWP

The target in test [2] is T1, HCoV-229E S ectodomain (17–1115 aa), ….
Test [3] deals with T2, HCoV-229E S1 subunit (17–560 aa) (human coronavirus 229E, UniProt P15423 17-560).
T2 chain: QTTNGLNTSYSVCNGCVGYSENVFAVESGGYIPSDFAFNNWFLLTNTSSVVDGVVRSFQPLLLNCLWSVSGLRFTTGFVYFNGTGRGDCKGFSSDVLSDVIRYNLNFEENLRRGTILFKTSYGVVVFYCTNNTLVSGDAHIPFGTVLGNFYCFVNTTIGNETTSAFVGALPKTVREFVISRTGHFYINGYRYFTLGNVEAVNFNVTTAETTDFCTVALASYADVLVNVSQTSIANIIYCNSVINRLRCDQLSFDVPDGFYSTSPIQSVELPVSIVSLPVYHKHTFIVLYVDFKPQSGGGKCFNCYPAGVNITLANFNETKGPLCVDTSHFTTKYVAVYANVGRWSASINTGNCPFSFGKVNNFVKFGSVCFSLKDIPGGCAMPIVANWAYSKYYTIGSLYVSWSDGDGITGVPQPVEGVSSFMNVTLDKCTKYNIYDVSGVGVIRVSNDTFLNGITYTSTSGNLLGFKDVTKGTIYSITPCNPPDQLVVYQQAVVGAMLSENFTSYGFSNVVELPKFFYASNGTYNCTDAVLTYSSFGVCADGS

In test [4] the target is T3, HCoV-229E NTD (17–265 aa) (human coronavirus 229E, UniProt P15423 17-265).
T3 chain: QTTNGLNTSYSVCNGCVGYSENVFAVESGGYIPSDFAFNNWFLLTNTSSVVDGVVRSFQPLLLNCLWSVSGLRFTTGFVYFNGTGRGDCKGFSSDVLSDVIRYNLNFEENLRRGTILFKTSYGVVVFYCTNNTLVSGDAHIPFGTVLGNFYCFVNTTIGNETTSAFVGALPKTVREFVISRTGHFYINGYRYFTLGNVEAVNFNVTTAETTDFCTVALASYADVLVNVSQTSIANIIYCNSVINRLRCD

Test [5] deals with T4, HCoV-NL63 S ectodomain (16–1291 aa) (human coronavirus NL63, UniProt Q6Q1S2 16-1291).
T4 chain: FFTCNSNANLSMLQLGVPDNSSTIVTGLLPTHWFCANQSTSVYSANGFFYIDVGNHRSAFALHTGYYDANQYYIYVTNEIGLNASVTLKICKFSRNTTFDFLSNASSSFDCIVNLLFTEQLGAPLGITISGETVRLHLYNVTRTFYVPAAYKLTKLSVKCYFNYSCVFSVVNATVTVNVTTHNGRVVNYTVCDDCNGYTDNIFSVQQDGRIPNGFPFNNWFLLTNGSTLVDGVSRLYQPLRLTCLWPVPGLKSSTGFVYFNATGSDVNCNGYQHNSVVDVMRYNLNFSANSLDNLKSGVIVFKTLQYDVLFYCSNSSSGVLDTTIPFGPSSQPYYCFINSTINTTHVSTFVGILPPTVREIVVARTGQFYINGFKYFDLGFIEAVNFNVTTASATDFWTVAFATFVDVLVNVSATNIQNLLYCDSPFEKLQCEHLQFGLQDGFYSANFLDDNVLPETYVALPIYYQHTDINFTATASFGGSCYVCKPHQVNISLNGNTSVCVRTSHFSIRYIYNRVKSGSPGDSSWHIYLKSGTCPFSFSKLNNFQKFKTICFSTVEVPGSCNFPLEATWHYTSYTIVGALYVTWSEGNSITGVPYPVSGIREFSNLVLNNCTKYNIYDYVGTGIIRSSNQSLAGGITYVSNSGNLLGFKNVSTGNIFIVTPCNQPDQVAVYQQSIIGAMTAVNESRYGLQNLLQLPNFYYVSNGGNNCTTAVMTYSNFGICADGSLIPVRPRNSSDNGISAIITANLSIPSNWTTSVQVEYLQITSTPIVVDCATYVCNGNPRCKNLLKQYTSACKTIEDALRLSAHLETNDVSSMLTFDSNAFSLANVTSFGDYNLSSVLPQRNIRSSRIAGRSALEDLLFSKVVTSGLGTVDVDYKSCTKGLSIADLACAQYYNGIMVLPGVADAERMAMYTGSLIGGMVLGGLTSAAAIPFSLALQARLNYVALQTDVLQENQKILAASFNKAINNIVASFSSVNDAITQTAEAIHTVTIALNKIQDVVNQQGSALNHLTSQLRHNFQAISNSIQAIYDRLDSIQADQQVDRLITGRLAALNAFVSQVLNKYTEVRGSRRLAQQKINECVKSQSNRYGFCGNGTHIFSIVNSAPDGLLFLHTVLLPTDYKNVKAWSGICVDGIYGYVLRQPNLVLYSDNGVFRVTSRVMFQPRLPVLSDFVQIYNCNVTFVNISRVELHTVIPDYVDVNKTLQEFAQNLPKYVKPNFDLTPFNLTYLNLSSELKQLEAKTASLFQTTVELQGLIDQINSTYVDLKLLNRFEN

The target of test [6] is T4, HCoV-NL63 S ectodomain (16–1291 aa).
Test [7] has as its target T2, HCoV-229E S1 subunit (17–560 aa).
Test [8] concerns the target T3, HCoV-229E NTD (17–265 aa).
For test [9], the target named is T5, HCoV-229E S2 subunit (575–1115 aa) (human coronavirus 229E, UniProt P15423 575-1115).
T5 chain: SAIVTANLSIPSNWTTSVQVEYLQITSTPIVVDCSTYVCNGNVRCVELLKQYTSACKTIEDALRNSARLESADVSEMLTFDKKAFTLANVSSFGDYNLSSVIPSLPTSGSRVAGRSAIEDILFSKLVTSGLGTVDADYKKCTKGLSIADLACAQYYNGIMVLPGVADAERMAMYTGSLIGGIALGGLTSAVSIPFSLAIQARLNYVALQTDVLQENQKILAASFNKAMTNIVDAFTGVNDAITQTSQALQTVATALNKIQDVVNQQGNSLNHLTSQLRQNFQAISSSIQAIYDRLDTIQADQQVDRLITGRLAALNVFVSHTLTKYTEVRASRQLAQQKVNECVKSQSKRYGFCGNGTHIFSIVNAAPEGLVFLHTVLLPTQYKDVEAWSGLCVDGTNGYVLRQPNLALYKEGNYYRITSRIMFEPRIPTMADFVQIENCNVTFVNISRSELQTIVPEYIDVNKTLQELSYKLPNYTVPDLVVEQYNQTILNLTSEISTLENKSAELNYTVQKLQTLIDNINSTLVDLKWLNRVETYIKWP

The source of these data is paper PMC9636267 (2022).

Like-named read-outs stand apart in the source and are kept apart here.

As usually defined, the koff is a measure of how fast the partners let go of each other. Low values mean slow dissociation, high ones fast dissociation. Usually Kd stands for the equilibrium constant for the complex coming apart. High values mean lower affinity, low ones higher affinity.

B1: Fab D12 (Fab, V domains shown)
VH: EVQLVESGGGLVQPGGSLRLSCAASGFNLSSYSMHWVRQAPGKGLEWVAYISPYYSYTSYADSVKGRFTISADTSKNTAYLQMNSLRAEDTAVYYCARVWYHSYPGWVPWGSWAFDYWGQGTLVTVSS
VL: DIQMTQSPSSLSASVGDRVTITCRASQSVSSAVAWYQQKPGKAPKLLIYSASSLYSGVPSRFSGSRSGTDFTLTISSLQPEDFATYYCQQAYYSPITFGQGTKVEIK
Consider B1, for which the koff in test [1] was 0.0018 s⁻¹; in test [7], 0.00086 s⁻¹; in test [8], 0.00043 s⁻¹. Also, the Kd in test [2] stood at 3.9 nM; in test [3] it was 1.1 nM; in test [4], 3.2 nM; in test [5], 8400 nM; in test [6] it was 3800 nM.

B2: Fab F07 (Fab, V domains shown)
VH: EVQLVESGGGLVQPGGSLRLSCAASGFNISYYSIHWVRQAPGKGLEWVASIYPYYGYTSYADSVKGRFTISADTSKNTAYLQMNSLRAEDTAVYYCARSSGYYHYPYSHSGLDYWGQGTLVTVSS
VL: DIQMTQSPSSLSASVGDRVTITCRASQSVSSAVAWYQQKPGKAPKLLIYSASSLYSGVPSRFSGSRSGTDFTLTISSLQPEDFATYYCQQSYYWGGPITFGQGTKVEIK
As for B2, the koff in [1] worked out at 0.00035 s⁻¹; in test [7] it was 0.00036 s⁻¹; in test [8] it was 0.00053 s⁻¹. The Kd stood at 1.4 nM in [2]; 0.7 nM in [3]; 3.1 nM in [4]; 6400 nM in [5]; 3900 nM in [6].

B3: Fab F12 (Fab, V domains shown)
VH: EVQLVESGGGLVQPGGSLRLSCAASGFNLYYYYIHWVRQAPGKGLEWVASISPYSGYTSYADSVKGRFTISADTSKNTAYLQMNSLRAEDTAVYYCARAFSSYYSHSVGLDYWGQGTLVTVSS
VL: DIQMTQSPSSLSASVGDRVTITCRASQSVSSAVAWYQQKPGKAPKLLIYSASSLYSGVPSRFSGSRSGTDFTLTISSLQPEDFATYYCQQHSWGGLITFGQGTKVEIK
Regarding B3, the figures for the koff in [1] and in test [9] were 0.00091 s⁻¹ and 2.7e-05 s⁻¹, respectively.
